Data: publication PMC9021268

Tests used:
tubulin (microtubules) = test: optical trap tip-attachment detachment rate
[1] = molecular target: Dynamic microtubules, coverslip-anchored (grown from GMPCPP-stabilized seeds with unpolymerized tubulin) (bovine) (UniProt Q6B856); test: optical trap force clamp (detachment of kinetochore-decorated beads from microtubule tips); low density of kinetochores on anti-His beads (Dsn1:bead ratio 200); coverslip-anchored dynamic microtubules; 5 pN; 3 nM Dam1c and ATP in the buffer; 0.5 μM AurB*-KD flowed in
[2] = molecular target: Dynamic microtubules, coverslip-anchored (grown from GMPCPP-stabilized seeds with unpolymerized tubulin) (bovine) (UniProt Q6B856); test: optical trap force clamp (detachment of kinetochore-decorated beads from microtubule tips); high density of kinetochores on anti-His beads (Dsn1:bead ratio 3,300); coverslip-anchored dynamic microtubules; ~1 pN; 3 nM Dam1c and ATP in the buffer; 5 μM AurB*-KD flowed in
[3] = molecular target: Dynamic microtubules, coverslip-anchored (grown from GMPCPP-stabilized seeds with unpolymerized tubulin) (bovine) (UniProt Q6B856); test: optical trap force clamp (detachment of kinetochore-decorated beads from microtubule tips); low density of kinetochores on anti-His beads (Dsn1:bead ratio 200); coverslip-anchored dynamic microtubules; 1.5 pN; 3 nM Dam1c and ATP in the buffer; 0.5 μM AurB*-KD flowed in
[4] = molecular target: Dynamic microtubules, coverslip-anchored (grown from GMPCPP-stabilized seeds with unpolymerized tubulin) (bovine) (UniProt Q6B856); test: optical trap force clamp (detachment of kinetochore-decorated beads from microtubule tips); low density of kinetochores on anti-His beads (Dsn1:bead ratio 200); coverslip-anchored dynamic microtubules; 5 pN; 3 nM Dam1c and ATP in the buffer; 0.5 μM active AurB* flowed in
[5] = molecular target: Dynamic microtubules, coverslip-anchored (grown from GMPCPP-stabilized seeds with unpolymerized tubulin) (bovine) (UniProt Q6B856); test: optical trap force clamp (detachment of kinetochore-decorated beads from microtubule tips); high density of kinetochores on anti-His beads (Dsn1:bead ratio 3,300); coverslip-anchored dynamic microtubules; ~1 pN; 3 nM Dam1c and ATP in the buffer; 5 μM active AurB* flowed in
[6] = molecular target: Dynamic microtubules, coverslip-anchored (grown from GMPCPP-stabilized seeds with unpolymerized tubulin) (bovine) (UniProt Q6B856); test: optical trap force clamp (detachment of kinetochore-decorated beads from microtubule tips); low density of kinetochores on anti-His beads (Dsn1:bead ratio 200); coverslip-anchored dynamic microtubules; 1.5 pN; 3 nM Dam1c and ATP in the buffer; 0.5 μM active AurB* flowed in
[7] = molecular target: Dynamic microtubules, coverslip-anchored (grown from GMPCPP-stabilized seeds with unpolymerized tubulin) (bovine) (UniProt Q6B856); test: optical trap force clamp (detachment of kinetochore-decorated beads from microtubule tips); high density of kinetochores on anti-His beads (Dsn1:bead ratio 3,300); coverslip-anchored dynamic microtubules; ~1 pN; 3 nM Dam1c and ATP in the buffer; 0.5 μM active AurB* flowed in
[8] = reference: 5 µM AurB*-KD flowed in

UniProt Q6B856, sequence (Q6B856 whole entry, looked up): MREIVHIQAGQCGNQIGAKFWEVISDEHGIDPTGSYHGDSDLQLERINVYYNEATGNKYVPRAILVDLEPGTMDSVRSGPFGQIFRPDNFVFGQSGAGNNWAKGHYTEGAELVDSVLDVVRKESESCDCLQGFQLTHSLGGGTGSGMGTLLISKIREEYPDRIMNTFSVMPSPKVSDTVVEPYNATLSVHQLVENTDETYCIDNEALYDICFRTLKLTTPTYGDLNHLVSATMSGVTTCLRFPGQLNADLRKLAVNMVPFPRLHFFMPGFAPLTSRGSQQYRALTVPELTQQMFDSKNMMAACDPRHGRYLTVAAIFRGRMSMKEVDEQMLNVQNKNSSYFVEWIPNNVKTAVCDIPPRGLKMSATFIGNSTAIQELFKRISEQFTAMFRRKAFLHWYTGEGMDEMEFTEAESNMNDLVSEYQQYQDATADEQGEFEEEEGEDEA

| Substance | other: detachment rate (tubulin (microtubules); [8]) | detachment rate [1] | detachment rate [2] | detachment rate [3] | detachment rate [4] | detachment rate [5] | detachment rate [6] | detachment rate [7] | other: detachment rate (tubulin (microtubules); reference: 0.5 µM AurB*-KD flowed in) |
| --- | --- | --- | --- | --- | --- | --- | --- | --- | --- |
| Ndc80 (from UniProt P40460) 5 µM AurB* flowed in | weaker; reference 2.3 ± 0.9 | – | – | – | – | – | – | – | – |
| Mps1-1 kinetochores (native kinetochores purified from budding yeast strain SBY8726) (from UniProt P40568 1-576; P40460 1-691; P53148 1-917) (complex) | – | 7 h⁻¹ | 2.3 h⁻¹ | 10.4 h⁻¹ | 7 h⁻¹ | 7.2 h⁻¹ | 28.9 h⁻¹ | 4.6 h⁻¹ | – |
| Ndc80 (from UniProt P40460) 0.5 µM AurB* flowed in | weaker; reference 2.3 ± 0.9 | – | – | – | – | – | – | – | weaker; reference 10.4 ± 3.3 |
